Laboratory results reported in the supplement of paper PMC10126150.
± gives the standard deviation of the averaged measurements.
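Also: ATP exposure 15 min at 22 °C before imaging.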

These sequences were tested on ATP (assay: switch fluorescence ratio, 500 uM ATP over buffer (Cy3 cluster intensity, sum of 5 cycles each) (fold (ratio)); higher = stronger signal-on switching upon ATP binding; sequences stand for … in TCGTCGGCAGCGTCAGATGTGTATAAGAGACAGTTTTTTTTTTTTTTTTTTTTTTTTT…TC). Details: aptamer strand: ATP DNA aptamer (quencher-CACCTGGGGGAGTATTGCGGAGGAAGG + anchor), 100 nM annealed; ATP concentration: 500 uM.
In short: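 Per cluster, summed Cy3 intensity from the target cycles was divided by that from the buffer cycles to give the fluorescence ratio, then averaged per switch-domain sequence. Clusters outside 100-1000 RFU were excluded. The Cy3-labelled switching-strand clusters, on a modified Illumina MiSeq flow-cell, were annealed to 100 nM quencher-labelled ATP aptamer and imaged in selection buffer, then after 15 min with 500 uM ATP at 22 °C, for five cycles with NaOH stripping and re-annealing between them.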
AAAATTGCAG showed a switch fluorescence ratio of 0.997 ± 0.012.
In the case of AAAATTGTTG, the switch fluorescence ratio is reported as 0.988 ± 0.049.
Sequence AAAATTTAAA has a switch fluorescence ratio of 1 ± 0.051.
In the case of AAAATTTCGC, the switch fluorescence ratio is reported as 1.01 ± 0.018.
AAAATTTGGG was tested, and the switch fluorescence ratio was 1.02 ± 0.025.
For AAACACGTTG, the switch fluorescence ratio was 1.018 ± 0.0094.
Work on AAACCAGGTA yielded a switch fluorescence ratio of 1.18 ± 0.048.
Sequence AAACCCAAAG has a switch fluorescence ratio of 1.02 ± 0.045.
Work on AAACCGGGCA yielded a switch fluorescence ratio of 1.22 ± 0.22.
AAACGAGGTC was tested, and the switch fluorescence ratio was 1.01 ± 0.032.
With AAACGATTTA the switch fluorescence ratio was 1.018 ± 0.0055.
Sequence AAACGCAGGG has a switch fluorescence ratio of 1.03 ± 0.029.
For AAACGCGGAC, the switch fluorescence ratio was 3.45 ± 0.49.
AAACGCTGCT gave a switch fluorescence ratio of 1.02 ± 0.062.
AAACGGACGG was tested, and the switch fluorescence ratio was 1.24 ± 0.029.
For AAACGGCTAA, the switch fluorescence ratio was 1.02 ± 0.039.
AAACGGGGCG gave a switch fluorescence ratio of 0.9719 ± 0.0047.
Sequence AAACGGGTAG has a switch fluorescence ratio of 1.07 ± 0.1.
With AAACGTGGTG the switch fluorescence ratio was 1 ± 0.038.
Work on AAACTATAGA yielded a switch fluorescence ratio of 1.01 ± 0.054.
In the case of AAACTATGTG, the switch fluorescence ratio is reported as 1.02 ± 0.037.
In the case of AAACTCATGA, the switch fluorescence ratio is reported as 0.983 ± 0.02.
In the case of AAACTGACGG, the switch fluorescence ratio is reported as 1.37 ± 0.016.
Work on AAACTTAATG yielded a switch fluorescence ratio of 1.05 ± 0.061.
AAACTTTCTA was tested, and the switch fluorescence ratio was 1.05 ± 0.05.
AAACTTTTTT gave a switch fluorescence ratio of 0.9566 ± 0.0049.
In the case of AAAGAAAAAT, the switch fluorescence ratio is reported as 1.002 ± 0.005.
With AAAGAAATTA the switch fluorescence ratio was 0.997 ± 0.042.
With AAAGAACCG the switch fluorescence ratio was 1.085 ± 0.0014.
AAAGAACGCT was tested, and the switch fluorescence ratio was 1.04 ± 0.015.
For AAAGAAGCTT, the switch fluorescence ratio was 1.02 ± 0.041.
In the case of AAAGAAGGGG, the switch fluorescence ratio is reported as 0.995 ± 0.015.
AAAGAATTTT was tested, and the switch fluorescence ratio was 1 ± 0.05.
In the case of AAAGACACTC, the switch fluorescence ratio is reported as 1.04 ± 0.071.
For AAAGACAGTG, the switch fluorescence ratio was 1.01 ± 0.058.
AAAGACCCTG was tested, and the switch fluorescence ratio was 0.988 ± 0.049.
Work on AAAGAGCGGG yielded a switch fluorescence ratio of 1.02 ± 0.061.
AAAGAGGCAA was tested, and the switch fluorescence ratio was 1.03 ± 0.047.
AAAGAGTGTT showed a switch fluorescence ratio of 0.9776 ± 0.0081.
AAAGAGTTCA showed a switch fluorescence ratio of 1 ± 0.035.
In the case of AAAGATAGGG, the switch fluorescence ratio is reported as 1.01 ± 0.018.
Sequence AAAGATCGTG has a switch fluorescence ratio of 0.974 ± 0.01.
In the case of AAAGATTGTT, the switch fluorescence ratio is reported as 0.954 ± 0.011.
AAAGCATAGG gave a switch fluorescence ratio of 1.03 ± 0.015.
For AAAGCCGAAT, the switch fluorescence ratio was 0.99 ± 0.023.
With AAAGCCTTGG the switch fluorescence ratio was 0.973 ± 0.021.
AAAGCGGTAT was tested, and the switch fluorescence ratio was 1.038 ± 0.007.
AAAGCGGTTG was tested, and the switch fluorescence ratio was 0.98 ± 0.012.
In the case of AAAGCTAGGA, the switch fluorescence ratio is reported as 0.979 ± 0.036.
AAAGCTGCTT gave a switch fluorescence ratio of 0.987 ± 0.024.
Work on AAAGCTTGGA yielded a switch fluorescence ratio of 1.03 ± 0.058.
In the case of AAAGGAAAGT, the switch fluorescence ratio is reported as 1.01 ± 0.02.
For AAAGGACGGG, the switch fluorescence ratio was 1.017 ± 0.0031.
AAAGGAGCGT was tested, and the switch fluorescence ratio was 0.992 ± 0.041.
Sequence AAAGGAGGGG has a switch fluorescence ratio of 0.983 ± 0.02.
In the case of AAAGGATCGT, the switch fluorescence ratio is reported as 1.01 ± 0.02.
AAAGGATTTG showed a switch fluorescence ratio of 0.97 ± 0.0034.
With AAAGGCCCGT the switch fluorescence ratio was 1 ± 0.0077.
With AAAGGCGCTG the switch fluorescence ratio was 0.984 ± 0.041.
AAAGGGACGG was tested, and the switch fluorescence ratio was 0.9829 ± 0.0091.
With AAAGGGAGGG the switch fluorescence ratio was 1 ± 0.02.
Work on AAAGGGCGGA yielded a switch fluorescence ratio of 0.9884 ± 0.009.
For AAAGGGCGTG, the switch fluorescence ratio was 0.985 ± 0.022.
AAAGGGGACC showed a switch fluorescence ratio of 1.09 ± 0.053.
In the case of AAAGGGGACG, the switch fluorescence ratio is reported as 1.01 ± 0.017.
For AAAGGGGGGT, the switch fluorescence ratio was 0.989 ± 0.025.
With AAAGGGGTCG the switch fluorescence ratio was 1.07 ± 0.036.
With AAAGGGTCAG the switch fluorescence ratio was 0.996 ± 0.034.
AAAGGGTCAT gave a switch fluorescence ratio of 0.9918 ± 0.0086.
Sequence AAAGGGTTGG has a switch fluorescence ratio of 1.02 ± 0.02.
For AAAGGTAATT, the switch fluorescence ratio was 1.01 ± 0.015.
Work on AAAGGTATGG yielded a switch fluorescence ratio of 0.961 ± 0.018.
With AAAGGTGCAC the switch fluorescence ratio was 0.968 ± 0.11.
In the case of AAAGGTGCGG, the switch fluorescence ratio is reported as 0.9931 ± 0.0063.
AAAGGTGGGT was tested, and the switch fluorescence ratio was 1.51 ± 0.86.
AAAGGTTGTT showed a switch fluorescence ratio of 1.013 ± 0.0037.
With AAAGTAGCCT the switch fluorescence ratio was 1.08 ± 0.057.
